The record followed here is the DeepSol protein solubility set.

This series can be described thus: soluble on expression in E. coli; label from the status in PepcDB or PDB records.
As to “MGSDKIHHHHHHMAKKVAVLAVNPVNGCGLFQYLEAFFENGISYKVFAVSDTKEIKTNSGMVLIVDDVIANLKGHEDEFDALVFSCGDAVPVFQQYANQPYNVDLMEVIKTFGEKGKMMIGHCAGAMMFDFTGITKGKKVAVHPLAKPAIQNGIATDEKSEIDGNFFTAQDENTIWTMLPKVIEALK”, the “soluble on expression in E. coli” value was “not soluble”.

For “MDLTVPVEYSRAGNTTHSGNVHAIQDDEKFSYGTAGFRFKSEKLPFIVFRCAYVASLRARQLNSAIGVMITASHNPSCDNGVKLVDPSGDMLNEQWEIYATEVVNATDAELPAAVRALEKQISVGKTQLSRVVCGMDTRCSGPCLMNAARAGAALFNVQFDDIGVVSTPMLHYAVKAFNEPKFAEPTHDGYYSAIADSFKKLYEITEEPKDSRYQPKVIVDCANGVGAPRFRNLLERIPSSLLEVEFRNESEELNQGCGADFVKISQKLPANFSPTAAEPKCASFDGDADRLMYFRAKASENSESNDAELFDGDKIAVLIVTYIREQLKDYENSTPMERLRLGIVQTAYANGSSTRYIREKLGIEPIIVPTGVKHLHEAASEFDIGIYFEANGHGTVVFSEIFDRIIRRTPTESLPLRRLALFSRVINETVGDAFADLLAVEAVLRHYGWSMDDWAEKLYRDVPNVQIKVPVIDRSIFKTTNAEQTLVKPVGIQKMIDTDVAKYNNSRAFIRPSGTENIVRVYAEADTVENTLQLGKSLEQVVLNLCNSN”, the “soluble on expression in E. coli” value was “not soluble”.

As for “MGSDKIHHHHHHMGVRQKKIAAHDLEIGMFVSDLDRPWHQTPFPIQGFYLRSENDLKAVVSHCKWVMIDVAETREEITLGSDKVRPFARRSSARSGGREELQLAPLSIREPVVYKNDVPLRKELKASRKLLNDAELALSRMFETIRDDQMPDLRPAAEVTRRMVESVIRQPNALLWLSRTRQYDDFVYRHALNTAVWALVCGRQLGLNEGLLNHLGVGCLLSQVGKTALPKEMLAREHQLSTEEYATYRTYVERGCQMLEGAGLSRAVMSVVQGHRERHNGSGFPQGIRGDRIPLLAKVAGIAEFFESLIAPRDDQDPMTPAKAVSLLYDMRNIEFQEDLVEAFIQGVGVYPTGTLVELSDGQRGIVVSHSPGRRLWPSVMVMQDAEHRPLKSARIVDLARHIESRAASELLTVRECLPHGTDGLDPAGFDVTGAESRWSLGKLINR”, the “soluble on expression in E. coli” value was “not soluble”.

With “MSKDEIKKPVVLIYCDTIEGTNIYLKKICEGLEEEGVPFQIQQVEKVEDSVEVLAQNASRNSNLGIGIGVLKNGDCALLQRRLPPNLPIQTLRGEKYDPNLYRNIGINAARLAKNLPLVFA”, the “soluble on expression in E. coli” value is “not soluble”.

For “IHDDPVEQRDADVAMEKSHRARNERKKNKNHTPSEHPAAAAMHEEKKKVSIEDLVAAVVIEDDPQPEPDVVPTPADDDVMDIVSAALDRAYEEDPDEPSGSDYLPLEEKPQTYAEAVEEFERSPRRKRKTRGNSVSDVPPRKADFEKPEPQPEPEVVVEKVSSRGRRRAVRRTVVEATPEVVAPTETVESSRGRRRAVRKKMAPQPVQTEAVVEDKHEVSAPSQGGRGRRRASRRAPRR”, the “soluble on expression in E. coli” value was “not soluble”. Under “MIVNRNPFEQLPSLAINPEDFDVLYSAETFRTRLLDAISKATSRIYLVALYLEDDEAGREILTALYEAKQRNPGLDINICVDWHRAQRGLIGAETSEGNSALYKAFADQYQHAIPVYGIPVRGREVFGVLHLKGFVVDDTVIYSGASLNNVYLQYHGRYRFDRYHVIKHKSLADTMVNFVQNEMIAHPAVNDLADRDKPETKEIKSAIRQLRSSLAQANYQFAHEAAAEDKVKITPLVGLGKRRNLLNQQIVKLLAAAQNEIFICTPYFNFPKSIHREVKRAMKRGVKVTIVVGDKTANDFYISPEEDFKTIGGLPYLYEVNLRRFAKANEANIAARKLSVHLWKHENNSFHLKGIWVDKRYMLLTGNNLNPRAWSLDLENGLLIQDDYANLTHKFEDEVARILEHTQLICTYKQLEKVEDYPLAVQKLVRKITRLKADGVLKRILLEHHHHHH” stands “soluble”.

In the case of “MSKSEKQQLAPWVEKYRPKVLADIVGNENIVERLKVIGHEGNVPNIVLSGPPGCGKTTSVWALARELLGDKVKEAVLELNASDERGIDVVRHRIKTFAQTKVTLPEGRHKIIILDEADSMTDGAQQALRRTMEMYTKTTRFALACNQSEKIIEPIQSRCALLRYTKLSPVQLLTRVKEVAKAEKVNYDDGGLEAILFTAQGDMRQALNNLQATVNAYELVNKENVLKVCDEPHPDLMIKMLHYCTDRKFFEASKIIHEFHRLGFSSDDIVSTLFRVVKTVELSKNVSEQLRMEYIRQIAMCHMRIVQGLTSKLQLSRLIADLCRVSAAATATSA”, the “soluble on expression in E. coli” value was “not soluble”. Consider “MSLYQHGYHAGNFADVIKHITLTRLLAYLTHKDKPLFYLETHSGRGIYDLKDKQSLKTEEYKEGINPVWLDRENLPSLFLEYISVIKQINLNSTLSYYPGSPYFAINQLRSQDRLYLCELHPTEYNFLLKLPHFNKKVYVNHTDGVSKLNALLPPPEKRGLIFIDPSYERKEEYKEIPYAIKNAYSKFSTGLYCVWYPVVNKAWTEQFLRKMREISSKSVRIELHLNPLINEGMTGCGLWIINPPYTFPSEIKLVLETLTTYFNPGSSSYMIESGSKLCHGLKGIITITTDPNSSSVDKLAAALEHHHHHH”, for which the “soluble on expression in E. coli” value is recorded as “soluble”. The value for “MGSDKIHHHHHHMKTEIVEIESECLKDNFLKDDWKRQILVYRPDDAEGGLPLFIELAGTNWRPRTHNKFSLIIEKLFSSGLKAVVLNPNFSTRYNMNQYLNSPAVGSYEDFIVKELIPYFKDKYGTDHTALFGKSSGGFGSYTLAARHPDIIDGFADHFGDSCFFYLYADDMAAAFRYIQRHGKSESVKMLTSHMPSDDEMKVLNVIGSSAFYSPDMNDVNGFDLPFDEDTGELIEDVWQRWVQFDPAKNVLKYSGALKKMKAIYLDVGTNDEYKLYIGTRALHKKLGLANIDHYYEEFNGGHFGNSERYLYSLPFLYRKLNDTA” was “not soluble”. On to “MSLITVANRIFVNPERAAAFEERFRRRPRRVDRQPGFIADHVLRPTQAGDPYVVLSFWDSRAAFEAWRTSPGFKDGHKEGHHHHHH”, for which the “soluble on expression in E. coli” value was “not soluble”.

“MQVKILDTTLRDGEQTPGVSLSVEQKVMIAEALDNLGVDIIEAGTAIASEGDFQAIKEISQRGLNAEICSFARIKREDIDAAADAGAESIFMVAPSSDIHINAKFPGKDRDYVIEKSVEAIEYAKERGLIVEFGAEDASRADLDFVIQLFKRAEEAKADRITFADTVGVLSPEKMEEIVRKIKAKVKLPLAIHCHDDFGLATANTIFGIKAGAEEFHGTINGLGERAGNAAIEEVVIALEYLYGIKTKIKKERLYNTSKLVEKLSRVVVPPNKPIVGDNAFTHESGIHTSALFRDAKSYEPISPEVVGRKRVIVLGKHAGRASVEAIMNELGYKATPEQMKEILARIKEIGDKGKRVTDADVRTIIETVLQIKREKKVKLEDLAIFSGKNVMPMASVKLKIDGQERIEAAVGLGPVDAAINAIRRAIKEFADIKLVSYHVDAITGGTDALVDVVVQLKKDNKIVTARGARTDIIMASVEAFIEGINMLF”: the “soluble on expression in E. coli” value is on record as “not soluble”. As for “MLIGVISDTHIPDRASEIPEAVFDAFRDVELILHAGDLTSPDILTELETLAPVECVQGNMDRHYGIETPRSRLFEIESFRVGLIHGEVYPRGDTQQLRYLGLELGADVLISGHTHQPFIRELEDMVLLNPGSPTVPRLTDPSVMVLRIDGEKLDAEIIRTGAPVCRSLNFRR”, the “soluble on expression in E. coli” value is listed as “not soluble”. As to “GTTKHSKLLILGSGPAGYTAAVYAARANLQPVLITGMEKGGQLTTTTEVENWPGDPNDLTGPLLMERMHEHATKFETEIIFDHINKVDLQNRPFRLNGDNGEYTCDALIIATGASARYLGLPSEEAFKGRGVSACATCDGFFYRNQKVAVIGGGNTAVEEALYLSNIASEVHLIHRRDGFRAEKILIKRLMDKVENGNIILHTNRTLEEVTGDQMGVTGVRLRDTQNSDNIESLDVAGLFVAIGHSPNTAIFEGQLELENGYIKVQSGIHGNATQTSIPGVFAAGDVMDHIYRQAITSAGTGCMAALDAERYLDGLADAK”, the “soluble on expression in E. coli” value is reported as “soluble”.

Consider “MSIRSGSRRLELPHLSFPGLLRMNIHKNARLTPLRREEMAVAVFGGRLTKAQAARLYGVSLKIVSRWTERFRISGRAAMTDRSSRPTRSPRQMGQDIVERILHLRRQRLTGKHIAMETGVSPATVSRILRRAKLSRMKDIDPVEPVIRYEYAEPGGLIHLDIKRLGRFERVGHRITGNRTRQSNTRGVGWEYVHVCIDDVSRIAFTDIFPDEKAIMPLEHHHHHH”, for which the “soluble on expression in E. coli” value is given as “not soluble”.

As for “MLKTAYQRSPKQELAKNTPFFNETDLKHSFIIDFENQEFIHHQAEPLNYLFYLIKGKAKILKTERNGRQSIVQFLTAGDLIGDLTLVQAETITKDVIALGETCCLAVPLAYAETVLKNKVLFMQQLSHYLGKKMLQRVDHFTTNQTYELSYRLAELLLVAANHEDVYKEKHTEIAEYLGVSYRHLIYTFKQFRERGFIQKQGTAYHINRLALHSFVQKMKS”, the “soluble on expression in E. coli” value is on record as “not soluble”.

Take “MGSDKIHHHHHHMPYDSTDREIMRFLQGDIPLESRPYKNLAERLELSEEEIVLRVKKLREKGFLRRMGAVLRHRQAGFAVNAMVAWKLENEEQADRAGKIMAGYKEISHCYIREVPPDFDYSIFSMIHVKNEERLAEIIEEISLQTGIGKYIIIRSSRELKKESMQYF”: the “soluble on expression in E. coli” value is “not soluble”. Under “MGHHHHHHSHMEKIKIIVASDSIGETAELVARAGISQFNPKQCKNELLRYPYIESFEDVDEVIQVAKDTNAIIVYTLIKPEMKQYMSEKVAEFQLKSVDIMGPLMDLLSASVEEKPYNEPGIVHRLDDAYFKKIDAIEFAVKYDDGKDPKGLPKADIVLLGISRTSKTPLSQYLAHKSYKVMNVPIVPEVTPPDGLYDIDPKKCIALKISEEKLNRIRKERLKQLGLGDTARYATEARIQEELNYFEEIVSEIGCPVIDVSQKAIEETANDIIHYIEQNKSK” stands “soluble”; under “MAMNLPADNEGKIKLAMSILVTIINDTGVPRNIRRAAANALTHLRDPRLSPAVRAANAISALEEVSQDPNMPFYARTRIWQVITILETVRD”, “not soluble”; under “MLAVSFIAGVILIGLYGVDSSERYIAVSELLANPQDYSGQNINAMGVVEDRSLHKDPGVTSFDLKDENDENLKIHVNYVGNLPSNLAEGKQVTIRGSMISESTFEANKIVTGCPSKYTELEHHHHHH”, “not soluble”. Under “MRGIVTIDGPSASGKSSVARRVAAALGVPYLSSGLLYRAAAFLALRAGVDPGDEEGLLALLEGLGVRLLAQAEGNRVLADGEDLTSFLHTPEVDRVVSAVARLPGVRAWVNRRLKEVPPPFVAEGRDMGTAVFPEAAHKFYLTASPEVRAWRRARERPQAYEEVLRDLLRRDERDKAQSAPAPDALVLDTGGMTLDEVVAWVLAHIRR” stands “soluble”; under “MNSTHHYEQLIEIFNSCFADDFNTRLIKGDDEPIYLPADAEVPYNRIVFAHGFYASAIHEISHWCIAGKARRELVDFGYWYCPDGRDAQTQSQFEDVEVKPQALDWLFCVAAGYPFNVSCDNLEGDFEPDRVVFQRRVHAQVMDYLTNGIPERPARFIKALQNYYHTPELTAEQFPWPEALN”, “not soluble”.

Turning to “MPELPEVETIRRTLLPLIVGKTIEDVRIFWPNIIRHPRDSEAFAARMIGQTVRGLERRGKFLKFLLDRDALISHLRMEGRYAVASALEPLEPHTHVVFCFTDGSELRYRDVRKFGTMHVYAKEEADRRPPLAELGPEPLSPAFSPAVLAERAVKTKRSVKALLLDCTVVAGFGNIYVDESLFRAGILPGRPAASLSSKEIERLHEEMVATIGEAVMKGGSTVRTYVNTQGEAGTFQHHLYVYGRQGNPCKRCGTPIEKTVVAGRGTHYCPRCQR”, the “soluble on expression in E. coli” value was “soluble”. “MRVEPLPGVPAATVDTDGERLLAVADYHAGIEAGLRYEGVELQSAAEARRERLLTCLRRARADRLVVIGDLGHAIGDPFADERAELETLFDALDVPVTLVKGNHD”: the “soluble on expression in E. coli” value is “not soluble”.
